Results on 1 substance are retold here after publication doi:10.1101/2025.02.06.636884.

The target in the experiment is cytosolic fragment of the McpN chemoreceptor (Pseudomonas aeruginosa PAO1). Briefly: ITC.

CheV D238E (natural protein): the KD of the first binding event (high affinity, endothermic) was 0.008 µM; the KD of the second binding event (lower affinity, exothermic) worked out at 3 µM; the N of the first binding event came to 0.5.
